We go through 167 variants from the RNAGym collection of RNA variant scans (doi:10.7554/elife.90254).

The labels stand for the following.
B1: OR4K15 (parent)
chain: GUUAACGGUCAUAGGCCAUGGAAACUAGGAGCACCAUUUCGCUGCCAGUGAAGAAAUGAACAAAGAAAAUCUGGGCCAGGCAGGCAUCAAAAGAAAUAGUCUUGCGCUCAACCAGAAAGUCUGUAAUCAUUUUAAGGGUA

Variants of B1 are the subject of the data set. In words: self-cleavage, relative activity (ratio to wild type); higher = more cleavage; in vitro, sequencing; the parent is a self-cleaving ribozyme.
On to A91G A116C, for which the self-cleavage came out at 0.04.

As for A23U U87A, the self-cleavage amounted to 1.36.

A23G A55G: the self-cleavage was determined as 1.27.

Take A11G U49C: the self-cleavage came to 0.39.

As to A91U G138A, the self-cleavage turned out to be 0.82.

As for G15U A68C, the self-cleavage was found to be 1.71.

On to U49A A90G, for which the self-cleavage was determined as 0.81.

Take A5G G7U: the self-cleavage came out at 1.05.

For G84A U108C, the self-cleavage is 0.01.

On to A63U A69G, for which the self-cleavage came to 0.49.

For the variant A55G C77U, the self-cleavage was determined as 1.41.

Regarding U37C A51U, the self-cleavage is 1.83.

Turning to U37C A51G, the self-cleavage is 1.49.

In the case of A33G A54U, the self-cleavage was 1.04.

U26C A86U: the self-cleavage was 1.52.

With G74C A111G, the self-cleavage stood at 0.02.

With A30U A114U, the self-cleavage stood at 0.11.

G21U A62G: the self-cleavage was 1.54.

A117G A118G: the self-cleavage is 0.59.

Take A11U A92G: the self-cleavage is 1.

Take A96G U102G: the self-cleavage was determined as 1.08.

For the variant U43C U139A, the self-cleavage is 1.3.

On to U39C A114U, for which the self-cleavage came out at 0.1.

Turning to U12C A125G, the self-cleavage is 0.5.

A47G A67G: the self-cleavage was found to be 1.12.

Take A47U A116C: the self-cleavage was found to be 0.05.

Consider A18G G75C, for which the self-cleavage worked out at 0.16.

On to C71U U132C, for which the self-cleavage was determined as 0.25.

With A13U A60G, the self-cleavage came to 0.32.

For the variant A54C, the self-cleavage worked out at 1.41.

Turning to A55G U87C, the self-cleavage is 0.64.

In the case of A30U A33G, the self-cleavage is 0.69.

G21U U108C: the self-cleavage was found to be 0.02.

For the variant A23C A27G, the self-cleavage was determined as 0.28.

G58U U120A: the self-cleavage came out at 1.17.

Take A52G U108C: the self-cleavage amounted to 0.02.

As to A54U U103C, the self-cleavage came to 1.26.

In the case of U49C A95G, the self-cleavage was 1.

Regarding A27U U87A, the self-cleavage was 1.48.

In the case of G21U A90G, the self-cleavage was 1.16.

On to G1A A13G, for which the self-cleavage was found to be 1.29.

U120C A135C: the self-cleavage worked out at 1.51.

Consider A59G U139A, for which the self-cleavage worked out at 2.02.

For C40A U49C, the self-cleavage came to 1.85.

A4G C121A: the self-cleavage worked out at 2.03.

With A27C A33U, the self-cleavage came to 2.06.

For C17U A33G, the self-cleavage amounted to 1.07.

For the variant A13G A59G, the self-cleavage was 0.59.

For the variant A30U G93A, the self-cleavage was 1.63.

In the case of G74A A82G, the self-cleavage is 0.26.

On to G7A G137U, for which the self-cleavage turned out to be 2.13.

With U2C A114U, the self-cleavage stood at 0.09.

As to A36U A94G, the self-cleavage turned out to be 1.44.

As for A23U A111G, the self-cleavage was 0.04.

In the case of A27G U49A, the self-cleavage amounted to 0.93.

Regarding U49C A63G, the self-cleavage stood at 1.75.

Take U19A A23G: the self-cleavage turned out to be 1.28.

In the case of U57C U132C, the self-cleavage came to 0.52.

For A54G G136U, the self-cleavage came to 2.55.

For G7A A27G, the self-cleavage is 1.3.

Regarding A60G A89U, the self-cleavage was 1.5.

For the variant C46U A114G, the self-cleavage was determined as 0.49.

For the variant U39G, the self-cleavage was found to be 0.79.

On to A110G A114G, for which the self-cleavage turned out to be 0.05.

For C25U A89G, the self-cleavage was 1.27.

For the variant U9C A52G, the self-cleavage is 1.63.

As to U9C U127A, the self-cleavage was found to be 2.67.

As for A78G A117G, the self-cleavage worked out at 0.22.

For A11U U108G, the self-cleavage stood at 0.08.

For the variant U26C C77U, the self-cleavage came to 1.77.

In the case of G84A A117G, the self-cleavage turned out to be 2.38.

As to A98G, the self-cleavage came to 0.44.

For the variant G14U A92G, the self-cleavage was 1.2.

In the case of A30G A94G, the self-cleavage was determined as 1.29.

On to U120C, for which the self-cleavage turned out to be 0.8.

Take A22G U120A: the self-cleavage is 1.22.

As to A52G A56G, the self-cleavage was 0.76.

With A4G U38C, the self-cleavage was 1.15.

As for C45U A86U, the self-cleavage is 1.17.

For U12C A23G, the self-cleavage worked out at 0.76.

Take U3A A4G: the self-cleavage turned out to be 1.4.

For the variant U72A U108A, the self-cleavage came out at 0.04.

With A54U A134G, the self-cleavage worked out at 1.32.

Take A5U U72A: the self-cleavage was 0.62.

In the case of A54U U87C, the self-cleavage was found to be 1.34.

On to A117G A125G, for which the self-cleavage was found to be 0.66.

For G75U C85U, the self-cleavage was 0.21.

With A11U U124C, the self-cleavage turned out to be 1.14.

On to A24U A51U, for which the self-cleavage stood at 1.61.

Turning to A33U U70C, the self-cleavage was 1.

On to A69G U127A, for which the self-cleavage is 1.8.

With U19C U49A, the self-cleavage was 1.38.

U133A G136U: the self-cleavage is 0.91.

A36U A78G: the self-cleavage came out at 0.21.

A91G U120C: the self-cleavage amounted to 0.53.

For A67G A91G, the self-cleavage turned out to be 1.07.

For the variant G41U A52G, the self-cleavage amounted to 1.47.

As to G20A A24G, the self-cleavage worked out at 0.1.

As for A125G A140G, the self-cleavage was 0.69.

A90G A114G: the self-cleavage turned out to be 0.16.

Consider U12C U37G, for which the self-cleavage was found to be 1.92.

As for U26C A96G, the self-cleavage was 1.5.

For the variant A68G U103G, the self-cleavage came to 0.04.

With U122C A135U, the self-cleavage turned out to be 1.06.

For A11U A55G, the self-cleavage was 0.82.

Turning to A36G A89U, the self-cleavage came out at 2.21.

For the variant A36G A67G, the self-cleavage is 1.7.

With C40A A66G, the self-cleavage turned out to be 1.69.

On to G7U A59G, for which the self-cleavage was found to be 0.98.

In the case of A78G A98G, the self-cleavage came out at 0.08.

For the variant U57G U130C, the self-cleavage was 0.44.

On to A55G A126G, for which the self-cleavage amounted to 0.33.

Take A78G G137U: the self-cleavage turned out to be 0.25.

With A118G U120G, the self-cleavage amounted to 0.59.

With G41U A55G, the self-cleavage was 2.29.

A63G U108G: the self-cleavage was found to be 0.03.

Regarding A5U U103C, the self-cleavage was found to be 0.83.

With A67G U87C, the self-cleavage is 1.19.

G44C A82U: the self-cleavage is 0.27.

Turning to A33G A96G, the self-cleavage turned out to be 0.96.

In the case of A82C A114G, the self-cleavage was 0.05.

As for U108A A140G, the self-cleavage is 0.

On to A36U U87C, for which the self-cleavage came to 1.76.

Turning to U39C A91G, the self-cleavage was 1.4.

Turning to G7U A86G, the self-cleavage was 1.64.

A54G U130A: the self-cleavage worked out at 1.11.

With U9G A54G, the self-cleavage was 1.44.

Consider A89G U108A, for which the self-cleavage amounted to 0.02.

With A114U U132A, the self-cleavage is 0.08.

Regarding A22G A94C, the self-cleavage was determined as 1.21.

For the variant A78G G138A, the self-cleavage is 0.2.

Consider G7A A116U, for which the self-cleavage was 0.33.

On to A66G U120C, for which the self-cleavage worked out at 1.71.

As for G41A A91G, the self-cleavage worked out at 1.55.

On to U100C A129C, for which the self-cleavage is 1.8.

Consider A18U A114C, for which the self-cleavage amounted to 0.03.

On to A78G A89G, for which the self-cleavage amounted to 0.18.

Regarding A56U A96C, the self-cleavage is 0.35.

In the case of U12A A51U, the self-cleavage stood at 1.05.

In the case of U9C A22G, the self-cleavage worked out at 1.21.

As for C76A A117G, the self-cleavage is 0.18.

Turning to A27G U122A, the self-cleavage was found to be 1.47.

Turning to U100A A114U, the self-cleavage stood at 0.01.

Regarding U9A G41A, the self-cleavage was 1.34.

Take A5U A33G: the self-cleavage was 0.69.

For the variant G29A U139G, the self-cleavage turned out to be 0.86.

For A86G U131C, the self-cleavage worked out at 1.23.

For the variant U139C, the self-cleavage amounted to 1.04.

As to U2G A135U, the self-cleavage turned out to be 1.03.

With A52G A60C, the self-cleavage was 0.73.

For the variant A126G U127A, the self-cleavage was found to be 1.77.

In the case of U127C A129C, the self-cleavage is 0.21.

Turning to A92G A129C, the self-cleavage turned out to be 0.59.

As to A64G C85U, the self-cleavage amounted to 0.98.

Take C45G A55G: the self-cleavage is 1.73.

For the variant U9G U102C, the self-cleavage was determined as 2.28.

Take A90G U130C: the self-cleavage amounted to 0.87.

For the variant A69U G136A, the self-cleavage stood at 2.69.

Regarding A96U U131C, the self-cleavage was 2.32.

A82C G119A: the self-cleavage stood at 0.17.

Turning to U19C U43A, the self-cleavage is 2.04.

Consider A30G U38A, for which the self-cleavage was determined as 0.72.

Turning to U3C A91C, the self-cleavage came to 0.84.

In the case of U3C G119U, the self-cleavage amounted to 0.99.

With G48A U102A, the self-cleavage stood at 1.1.

Regarding U49C G137U, the self-cleavage came out at 2.29.

For U49C A60G, the self-cleavage was found to be 1.24.
